From publication PMC3669275 come the findings set out here.

For assay [1], the target named is HIV-1 HXB2 Env (gp160; gp41) expressed on CHO-Env cells (HIV-1 HXB2) (UniProt P04578).
The target in assay [2] is 3NC, recombinant protein with a triplicate N36-GGSGG-C34 (HIV-1). Nature of the assay: SPR; BIACORE X; 3NC (100 µg/ml) amine-coupled to a CM5 chip; C60 or POB1 (333–461) injected at 20 µl/min; 10 mM HEPES pH 7.4, 0.15 M NaCl, 3.4 mM EDTA, 0.005% P20. (In SPR one partner is held on a chip, and binding of the other changes the refractive index at the surface.)
In assay [3] the target is HIV-1 HXB2 Env (gp160; gp41) expressed on CHO-Env cells (HIV-1 HXB2) (UniProt P04578). This is another data set of the same source.

As to “C60, recombinant POB1 (462–521) (domain or fragment)”, the IC50 of inhibition of HIV-1 Env-mediated cell-cell fusion (syncytium formation, CHO-Env with 3T3.T4.CXCR4 cells) in assay [1] is 1.09 µM. For the same substance, the Kd (in general, the constant that tells how readily two partners part at equilibrium) in assay [2] was determined as 0.0155 µM. Also, in assay [3], the IC50 of inhibition of infection of MT-2 cells by HIV-1 IIIB (X4-tropic), p24 ELISA amounted to 15.3 µM and the IC50 of inhibition of infection of TZM-bl cells by HIV-1 Bal (R5-tropic; the Env is that of strain Bal), luciferase is 9.21 µM.
